Experimental findings from article doi:10.1101/2024.05.17.594765 are described below.

B1: C-terminally Halo-tagged full-length zyxin (zyxin-Halo) [modified: Janelia Fluor 646 Halo-ligand conjugated to the Halo tag; Janelia Fluor 646 Halo-ligand conjugated to the Halo tag] [human] / C-terminally … (parent)
chain 1: MSETVICSSRATVMLYDDGNKRWLPAGTGPQAFSRVQIYHNPTANSFRVVGRKMQPDQQVVINCAIVRGVKYNQATPNFHQWRDARQVWGLNFGSKEDAAQFAAGMASALEALEGGGPPPPPALPTWSVPNGPSPEEVEQQKRQQPGPSEHIERRVSNAGGPPAPPAGGPPPPPGPPPPPGPPPPPGLPPSGVPAAAHGAGGGPPPAPPLPAAQGPGGGGAGAPGLAAAIAGAKLRKVSKQEEASGGPTAPKAESGRSGGGGLMEEMNAMLARRRKATQVGEKTPKDESANQEEPEARVPAQSESVRRPWEKNSTTLPRMKSSSSVTTSETQPCTPSSSDYSDLQRVKQELLEEVKKELQKVKEEIIEAFVQELRKRGSP
chain 2: MAAPRPSPAISVSVSAPAFYAPQKKFGPVVAPKPKVNPFRPGDSEPPPAPGAQRAQMGRVGEIPPPPPEDFPLPPPPLAGDGDDAEGALGGAFPPPPPPIEESFPPAPLEEEIFPSPPPPPEEEGGPEAPIPPPPQPREKVSSIDLEIDSLSSLLDDMTKNDPFKARVSSGYVPPPVATPFSSKSSTKPAAGGTAPLPPWKSPSSSQPLPQVPAPAQSQTQFHVQPQPQPKPQVQLHVQSQTQPVSLANTQPRGPPASSPAPAPKFSPVTPKFTPVASKFSPGAPGGSGSQPNQKLGHPEALSAGTGSPQPPSFTYAQQREKPRVQEKQHPVPPPAQNQNQVRSPGAPGPLTLKEVEELEQLTQQLMQDMEHPQRQNVAVNELCGRCHQPLARAQPAVRALGQLFHIACFTCHQCAQQLQGQQFYSLEGAPYCEGCYTDTLEKCNTCGEPITDRMLRATGKAYHPHCFTCVVCARPLEGTSFIVDQANRPHCVPDYHKQYAPRCSVCSEPIMPEPGRDETVRVVALDKNFHMKCYKCEDCGKPLSIEADDNGCFPLDGHVLCRKCHTARAQT

In the first assay the parent is B1. The assay can be described thus: force reconstitution TIRF assay. The following applies: with C-terminally Halo-tagged VASP (VASP-Halo) [modified: Janelia Fluor 549 Halo-ligand conjugated to the Halo tag, images were acquired every 1 s, read off a plot.
For chain 2 F71A F93A F104A F114A, the screen value was found to be 38.

In another assay the parent is B1. The experiment in a line: force reconstitution TIRF assay. The following applies: with C-terminally Halo-tagged VASP (VASP-Halo) [modified: Janelia Fluor 549 Halo-ligand conjugated to the Halo tag, images were acquired every 1 s, read off a plot. The source holds these as a separate data set.
Regarding chain 2 F71A F93A F104A F114A, the screen value was 2.6 s.
